Data on 13 molecules can be found in patent US20170145113A1 (Genentech, published 2017).

Numbering of substitutions follows the chain as printed. Names and notes keep the numbering of the source.

This assay concerns the target T1, His-tagged human HtrA1 protease domain (human, UniProt Q92743 161-367).
T1 construct: His-tagged protease domain; also called huHtrA1-PD-His; huHtrA1-PD
The assay is described as follows: SPR (BIACORE T200), huHtrA1-PD-His captured by anti-His, Fab injected. As to the method:
To determine the binding affinity of selected Fab variants for HtrA1, SPR measurement with a BIACORE™ T200 instrument was performed. Briefly, a series S sensor chip CM5 was activated with 1-EDC and NHS reagents according to the supplier's instructions, and anti-His antibody was coupled to achieve 200-300 response units (RU), then following by blocking un-reacted groups with 1 M ethanolamine. For kinetics measurements, approximately 5 nM of huHtrA1-PD-His was first injected at 10 μl/min flow rate to capture approximately 100 RU at 2 different flow cells (FC), except for FC1 (which served as a reference). Next, 5-fold serial dilutions of Fab in HBS-P buffer (0.01M HEPES pH 7.4, 0.15M NaCl, 0.005% surfactant P20) from low (0.8 nM) to high (50 nM) were injected (flow rate: 30 μl/min). The binding responses on HtrA1 were corrected by subtracting of RU from a blank flow cell. The sensorgram was recorded and subject to reference and buffer subtraction before evaluating by BIACORE® T200 Evaluation Software (version 2.0). Association rates (kₒₙ) and dissociation rates (koff) were calculated using a simple one-to-one Langmuir binding model. The equilibrium dissociation constant (KD) was calculated as the ratio of koff/kₒₙ.
(SPR reads the build-up and loss of mass on a sensor chip optically.)

The term Kd denotes the equilibrium constant for the complex coming apart. Read a high Kd as lower affinity. For orientation: koff means the first-order rate constant of dissociation. Low values mean a long-lived complex, high ones a short-lived complex. What is called kon is a measure of how fast the partners come together. A lower kon goes with slow association.

T1 sequence (Q92743 other isoform, or with tags, fused parts or gaps limits assumed): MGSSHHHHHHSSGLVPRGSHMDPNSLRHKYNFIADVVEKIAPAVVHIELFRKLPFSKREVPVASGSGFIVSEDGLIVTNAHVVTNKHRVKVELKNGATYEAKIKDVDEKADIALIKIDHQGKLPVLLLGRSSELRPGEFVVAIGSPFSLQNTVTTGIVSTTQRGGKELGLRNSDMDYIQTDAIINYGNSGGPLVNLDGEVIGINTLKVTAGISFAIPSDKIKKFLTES

B1: h15H6.v2 variant HC1 (HC-T30K) Fab (Fab, V domains shown)
VH: EVQLVQSGAEVKKPGASVKVSCKASGYTFKDSEMHWVRQAPGQGLEWIGGVDPETDGAAYNQKFKGRATITRDTSTSTAYLELSSLRSEDTAVYYCTRGYDYDYALDYWGQGTLVTVSS
VL: DIQMTQSPSSLSASVGDRVTITCRASSSVNFIHWYQQKPGKAPKPLISATSNLASGVPSRFSGSGSGTDFTLTISSLQPEDFATYYCQQWSSNPWTFGQGTKVEIK
notes: Fab-Flag tag fusion from 293T cells
B1: the dissociation constant Kd was found to be 0.475 nM, the koff stood at 0.000165 s⁻¹ and the kon came to 347000 M⁻¹ s⁻¹.

B2: h15H6.v2 variant LC5 (LC-N53E) Fab (Fab, V domains shown)
VH: B1 VH with K30T
VL: B1 VL with N52E
notes: as for B1
In turn, B2 showed a Kd of 0.481 nM, a koff of 0.000212 s⁻¹ and a kon of 441000 M⁻¹ s⁻¹.

B3: h15H6.v2 variant HC7 (HC-A58F) Fab (Fab, V domains shown)
VH: B1 VH with K30T, A59F
VL: B1 VL
notes: as for B1
For the molecule B3, the Kd came out at 0.611 nM, the koff stood at 0.000165 s⁻¹ and the kon was 271000 M⁻¹ s⁻¹.

B4: h15H6.v2 variant LC1 (LC-S29R) Fab (Fab, V domains shown)
VH: B1 VH with K30T
VL: B1 VL with S28R
notes: as for B1
B4 yielded a Kd of 1.55 nM, a koff of 0.000229 s⁻¹ and a kon of 148000 M⁻¹ s⁻¹.

B5: h15H6.v2 variant HC3 (HC-T28K) Fab (Fab, V domains shown)
VH: B1 VH with T28K, K30T
VL: B1 VL
notes: as for B1
In the case of B5, the affinity, expressed as Kd, was 0.374 nM; the koff turned out to be 0.000171 s⁻¹; the kon was 456000 M⁻¹ s⁻¹.

B6: h15H6.v2 variant LC4 (LC-N53H) Fab (Fab, V domains shown)
VH: B1 VH with K30T
VL: B1 VL with N52H
notes: as for B1
B6: binding was characterised by a dissociation constant (Kd) of 0.517 nM, the koff was 0.000213 s⁻¹ and the kon was found to be 413000 M⁻¹ s⁻¹.

B7: h15H6.v2 variant HC8 (HC-Y100I) Fab (Fab, V domains shown)
VH: B1 VH with K30T, Y104I
VL: B1 VL
notes: as for B1
The molecule B7 returned a Kd of 0.603 nM, a koff of 0.000237 s⁻¹ and a kon of 393000 M⁻¹ s⁻¹.

B8: h15H6.v2 variant LC2 (LC-N31H) Fab (Fab, V domains shown)
VH: B1 VH with K30T
VL: B1 VL with N30H
notes: as for B1
B8: the dissociation constant Kd amounted to 0.836 nM, the koff came to 0.00019 s⁻¹ and the kon worked out at 228000 M⁻¹ s⁻¹.

B9: h15H6.v2 variant HC4 (HC-T28R) Fab (Fab, V domains shown)
VH: B1 VH with T28R, K30T
VL: B1 VL
notes: as for B1
B9 showed a Kd of 0.643 nM, a koff of 0.000212 s⁻¹ and a kon of 331000 M⁻¹ s⁻¹.

B10: h15H6.v2 variant HC9 (HC-A100aP) Fab (Fab, V domains shown)
VH: B1 VH with K30T, A105P
VL: B1 VL
notes: as for B1
Take B10: binding was put at a Kd of 0.618 nM, the koff came to 0.00021 s⁻¹ and the kon was 340000 M⁻¹ s⁻¹.

B11: h15H6.v2 variant HC6 (HC-E53A) Fab (Fab, V domains shown)
VH: B1 VH with K30T, E54A
VL: B1 VL
notes: as for B1
In turn, B11 displayed a Kd of 2.58 nM, a koff of 0.00026 s⁻¹ and a kon of 101000 M⁻¹ s⁻¹.

B12: h15H6.v2 variant HC5 (HC-M34L) Fab (Fab, V domains shown)
VH: B1 VH with K30T, M34L
VL: B1 VL
notes: as for B1
In the case of B12, the Kd is 0.481 nM, the dissociation rate constant (koff) worked out at 0.000246 s⁻¹ and the kon is 511000 M⁻¹ s⁻¹.

B13: h15H6.v2 variant HC2 (HC-T30R) Fab (Fab, V domains shown)
VH: B1 VH with K30R
VL: B1 VL
notes: as for B1
B13: the affinity, expressed as Kd, was 0.449 nM; the koff came out at 0.000164 s⁻¹; the on-rate (kon) was 366000 M⁻¹ s⁻¹.
